Reference: patent publication US20170198056A1 (MEDICINAL CHEMISTRY PHARMACEUTICALS, published 2017)

B1: Monoclonal antibody SN-101 (antibody, V domains shown)
VH: EVNLEESGGGLVQPGGSMKLSCVASGFTFSNYWMNWVRQSPEKGLEWVAQIRLKSDNYATHYAESVKGRFTISRDDSKSSVYLQMNNLRAEDTGIYYCTGGVFDYWGQGTTLTVSS
VL: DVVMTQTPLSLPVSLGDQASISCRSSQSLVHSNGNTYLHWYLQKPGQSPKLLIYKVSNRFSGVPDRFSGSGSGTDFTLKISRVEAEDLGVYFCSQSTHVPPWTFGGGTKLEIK
notes: Mouse monoclonal antibody from a hybridoma; it was purified on Protein G and detected with anti-mouse IgG; The array assay used culture supernatant diluted 10-fold; also called antibody of hybridoma strain 3A9-4B1 (NITE BP-01845)
B2: Monoclonal antibody SN-102 (antibody, V domains shown)
VH: EVQLQQSGAELVKPGASVKLSCTASGFNIKDYYMHWVKQRTEQGLEWIGRIDPEDGETKYAPKFQGKAIITADTSSNTAYLQLSSLTSEDTAVYYCVHFYYGYDVGRGYWGQGTTLTVSS
VL: DIVMSQSPSSLAVSVGEKVTMSCKSSQSLLYSSNQKNYLAWYQQKPGQSPKLLIYWASTRESGVPDRFTGSGSGTDFTLTISSVKAEDLAVYYCQQYYSYTFGGGTKLEIK
notes: Mouse monoclonal antibody from a hybridoma; it was purified on Protein G and detected with anti-mouse IgG; The array assay used culture supernatant diluted 10-fold; also called antibody of hybridoma strain 3C10-E11

Target: T1, MUC1 expressed on breast cancer cells (OCUB-M, MCF-7) (human, UniProt P15941 24-1255, native O-glycosylation of the cancer cells, not defined)
T1 construct: whole, on cells; OCUB-M cells were fixed and treated with Triton X-100; MCF-7 cells were fixed with formaldehyde; also called MUC1 expressing cells
Assay: immunofluorescence staining of fixed OCUB-M breast cancer cells, 10 ug/mL antibody

T1 sequence (P15941 24-1255): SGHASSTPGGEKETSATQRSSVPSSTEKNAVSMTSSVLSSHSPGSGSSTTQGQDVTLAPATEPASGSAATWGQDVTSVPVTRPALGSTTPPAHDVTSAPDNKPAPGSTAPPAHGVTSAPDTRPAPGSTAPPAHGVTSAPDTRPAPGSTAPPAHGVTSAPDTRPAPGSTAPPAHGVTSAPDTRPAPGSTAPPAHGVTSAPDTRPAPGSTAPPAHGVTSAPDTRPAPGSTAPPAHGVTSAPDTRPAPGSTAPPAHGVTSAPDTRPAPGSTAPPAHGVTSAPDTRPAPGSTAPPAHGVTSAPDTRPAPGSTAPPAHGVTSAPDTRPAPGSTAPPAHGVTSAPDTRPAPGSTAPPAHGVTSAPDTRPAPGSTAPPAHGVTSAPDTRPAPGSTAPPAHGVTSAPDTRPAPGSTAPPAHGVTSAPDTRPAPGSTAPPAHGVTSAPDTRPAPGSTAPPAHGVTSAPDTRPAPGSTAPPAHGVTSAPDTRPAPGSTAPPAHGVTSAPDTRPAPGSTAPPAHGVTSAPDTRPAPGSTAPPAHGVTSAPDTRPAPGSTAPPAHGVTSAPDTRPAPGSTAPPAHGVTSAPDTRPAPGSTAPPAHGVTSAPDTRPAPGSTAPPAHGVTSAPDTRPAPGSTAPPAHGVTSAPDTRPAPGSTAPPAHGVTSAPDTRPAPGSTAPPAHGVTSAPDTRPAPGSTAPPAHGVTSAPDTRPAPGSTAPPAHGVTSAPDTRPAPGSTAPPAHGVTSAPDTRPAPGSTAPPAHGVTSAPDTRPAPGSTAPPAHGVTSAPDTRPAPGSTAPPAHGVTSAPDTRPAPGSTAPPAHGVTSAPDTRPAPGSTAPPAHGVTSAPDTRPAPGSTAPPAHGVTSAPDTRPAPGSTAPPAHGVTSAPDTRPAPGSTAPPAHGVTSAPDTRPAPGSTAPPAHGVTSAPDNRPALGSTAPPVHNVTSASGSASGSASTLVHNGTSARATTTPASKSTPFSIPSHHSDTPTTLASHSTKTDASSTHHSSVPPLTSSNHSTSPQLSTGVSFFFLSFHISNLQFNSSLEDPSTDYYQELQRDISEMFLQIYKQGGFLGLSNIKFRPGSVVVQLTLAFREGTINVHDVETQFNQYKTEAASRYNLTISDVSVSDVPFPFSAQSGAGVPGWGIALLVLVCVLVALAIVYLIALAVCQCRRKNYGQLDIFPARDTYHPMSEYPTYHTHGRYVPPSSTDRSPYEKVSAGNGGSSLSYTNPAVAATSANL

| Binder | binding result |
| --- | --- |
| B1 | binds |
| B2 | binds |
